# Test results reported in the supplement of paper PMC10567573.
# ± gives the standard deviation.
# Assay: protein stability index of a GFP-peptide fusion (GPS, HEK-293T) (PSI 1-6); higher = more stable
# Details: c terminus: a fixed tail appended
# 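Note: 24-mer peptide tiles fused after GFP, lentivirally expressed, FACS-sorted into six equal bins by GFP/DsRed ratio, decoded by Illumina sequencing, PSI is the read-weighted mean bin number.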
Sequence,protein stability index (treatment: DMSO),"protein stability index (treatment: MLN4924 1 uM, 8 h)"
EGRLERRECGLAAPRFSFNDPSGS [IRX6],3.79 ± 0.27,3.98 ± 0.2
MYDLPKKEDALLYQSKGYNDDYYE [EMD],4.27 ± 0.15,4.25 ± 0.22
ICKSDAPTGDVLLDEALKHVKETQ [GOLPH3],4.64 ± 0.3,4.72 ± 0.16
LIKAKSQARLEEQQRLAHLEDKLR [LRRC45],3.77 ± 0.25,3.96 ± 0.25
IFPRLSFKDKSTYIESSTKVYDDM [CLPTM1],3.03 ± 0.23,3.15 ± 0.25
GKSPSITFEYTLLQPPHESRPQPI [ADAMTSL2],2.83 ± 0.4,2.83 ± 0.29
ALSTMGTLICRKLGGVKKSATLRS [TPD52L3],2.6 ± 0.2,2.67 ± 0.31
ERLQAAGTDSAGPKTVPSHVFSEL [ELOA2],4.06 ± 0.15,4.4 ± 0.14
KRFQLTKLPPYLIFCIKRFTKNNF [USP39],2 ± 0.31,2.78 ± 0.81
ETPQPSPPGGSGSEPYKLLPGAVA [HNF4A],5.06 ± 0.21,4.92 ± 0.11
KSERRNLLEDDSDEEEDFFLRGPS [VAMP4],5.09 ± 0.26,5.15 ± 0.66
MRTTNLDNRCKLFDSPSLCSSSTR [CDC25A],3.21 ± 0.4,3.18 ± 0.24
EGASPLSERCQRQLQSLCRGLGLG [FANCE],3.31 ± 0.13,3.02 ± 0.32
EMGGSEGIVESIQIMKEGKATASE [NETO1],5.58 ± 0.21,5.611 ± 0.038
CVPGQVFSPDGPSRFRKAYKPEQP [LOXL2],3.17 ± 0.19,3.33 ± 0.091
LWPTPGHLSPLVVHRQLSHLYAEP [ESR2],2.38 ± 0.24,2.54 ± 0.3
KKLEKYLQKLSALLMTADILAETG [ELOA2],2.74 ± 0.79,2.6 ± 0.055
NLRATDVRLMRQLLVINESIESIK [LURAP1L],2.41 ± 0.16,2.58 ± 0.35
FLVSTHTGEVRTARALLEDDSDTQ [PCDHGC5],4.63 ± 0.22,4.76 ± 0.24
TKHKCRQLTKASLKPRGCSKPPWR [SPACA9],2.85 ± 0.4,3.42 ± 0.47
DKTCSKTKNKSKHALRKKQLKRQK [FAM9B],4.49 ± 0.21,4.59 ± 0.23
FHTMDELVEHYKKAPIFTSEHGEK [NCK2],3.88 ± 0.35,3.97 ± 0.27
SWVLSMLYGFLLTFGFITMTPQLF [CLPTM1],3.21 ± 0.47,3.03 ± 0.16

Sequence,protein stability index (treatment: DMSO),"protein stability index (treatment: MLN4924 1 uM, 8 h)"
SSSYSPETFRQQFRQFGYQDSPGP [ZNF396],3.48 ± 0.23,3.24 ± 0.21
AAKMYHQLKKCETRKLSPGKKRCK [SMG5],3.92 ± 0.35,4.07 ± 0.37
PKVSDQALVSAHSEWQRKLEAAEA [DMRTC1],4.54 ± 0.23,4.66 ± 0.29
LPKISDPNFVKDLEEDLYELFKKD [PI4K2A],3.72 ± 0.24,3.88 ± 0.31
MAEEQGRERDSVPKPSVLFLHPDL [ALG2],4.36 ± 0.15,4.5 ± 0.32
LVFEHVDQDLRTYLDKAPPPGLPA [CDK4],2.7 ± 0.36,2.88 ± 0.34
DKVSDGVTKSPEKRSSLPRPSSIL [MAP2],4.88 ± 0.14,4.99 ± 0.26
DEDDSEELEEDDGHGAEQAAAFPT [EHMT1],5.58 ± 0.27,5.7 ± 0.29
EHQPDNIKALFRKGKVLAQQGEYS [FKBP8],3.97 ± 0.36,3.87 ± 0.19
ELVALIPHSDQRLRPQRTKQYVLL [TMEM106C],2.02 ± 0.33,2.17 ± 0.22
PPPLPNHKYNTTSTSYSPLASLPL [PLAGL1],3.29 ± 0.17,3.33 ± 0.091
FTLKEEKPKMYFMTMIVSLAAVAW [ARL6IP1],3.4 ± 0.81,2.8 ± 0.86
SISEEGFHYLVFDLVTGGELFEDI [CAMK2B],2.32 ± 0.42,2.24 ± 0.4
DRDGHIKLTDFGFAKKLVDRTWTL [PRKX],2.1 ± 0.35,2.35 ± 0.42
TGPAWNVLMWTMLFLGQGIQVSLY [SOAT2],3.38 ± 0.42,3.26 ± 0.34
LQGCSSIGLRLVLEYLYTANVTLS [KLHL14],3.07 ± 0.45,2.93 ± 0.67
PTKADTEKWAEGGGHSRERADEPQ [CHGB],5.46 ± 0.32,5.36 ± 0.19
ELGEEPQPRDEEEAELELLRQFDL [POLD4],5.41 ± 0.26,5.51 ± 0.3
EDVTVGRRQAVAWLVAMHKAAKLL [ZFYVE21],2.48 ± 0.34,2.59 ± 0.35
YQELLRVCCCELGVNPDQVEKIRK [ANKRD40],2.41 ± 0.51,2.55 ± 0.22
RDRNLLQEDKALWEEEKALWVEER [CCDC70],5.007 ± 0.024,5.04 ± 0.28
RMEGSQEVVNMAVIVPKEEGVISV [WDFY2],3.23 ± 0.36,3.45 ± 0.17
